This note sets out measurements from patent publication US20190055322A1 (Ablynx, published 2019).

Assay [1] addresses T1, PcrV of P. aeruginosa strain PA103 (on TTSS-induced bacteria) (Pseudomonas aeruginosa strain PA103). The assay can be described thus: cell-based or functional assay.
Assay [2] concerns the target T2, recombinant PcrV protein (rPcrV), strain PAO1, amino acid residues 1-294, C-terminal His6 (Pseudomonas aeruginosa strain PAO1). The assay can be described thus: ELISA, periplasmic extract on biotinylated rPcrV.
Assay [3] addresses T2, recombinant PcrV protein (rPcrV), …. The assay can be described thus: SPR ProteOn, periplasmic extract on immobilised rPcrV.
Assay [4] has as its target T3, PcrV fragment (aa 144-257), C-terminal c-myc and His6 tags (Pseudomonas aeruginosa).
T3 construct: also called small PcrV fragment
The assay can be described thus: ELISA, binder coated; NB = binding signal = background signal.

Assay [5] addresses Full length PcrV (aa 1-294), C-terminal c-myc and His6 tags (Pseudomonas aeruginosa strain PAO1). The assay can be described thus: ELISA, binder coated.
The target of assay [6] is T1, PcrV of P. aeruginosa strain PA103 (on …). The assay can be described thus: cell-based or functional assay. This is another data set of the same source.
Assay [7] concerns the target GST-PcrV (strain PAO1, amino acid residues 1-294) (Pseudomonas aeruginosa strain PAO1). The assay can be described thus: SPR Biacore T100, GST-PcrV immobilised.
For cytotox assay (% inhibition), P3X63, PA103 in this document: test concentration or dose not given here.

B1: Nanobody 7E09 (VHH)
VHH: EVQLVESGGGLVQAGGSLRLSCAASGRTFSSYIMGWFRQAPGKAREFVADITWGQRPYYADSVKGRFTISRDNAKNTVYLEMNSLKPEDTAVYYCAADLGVVIREEHAYWGQGTLVTVSS
notes: also called 07E09
Consider B1, for which the “cytotox assay (% inhibition), P3X63, PA103” value (“cytotox assay (% inhibition)” below) in assay [1] worked out at 16%. Besides, the “binding ELISA (OD 450 nm)” value in assay [2] was determined as 2.59 OD 450 nm. Besides, the koff in assay [3] worked out at 0.0004 s⁻¹. Moreover, the binding result was “no binding” in assay [4] and “binds” in assay [5].

B2: Nanobody 6B05 (VHH)
VHH: EVQLVESGGGLVQPGGSLRLSCAASGSIFSINTMGWYRQAPGKQRELVSTITSNLVPHYADSVQGRFTISRDNARNTVYLQMNSLKPQDTAHYYCNAWARSSGATPYTNYWGQGTLVTVSS
notes: also called 06B05
Take B2: the “cytotox assay (% inhibition)” value in assay [1] stood at 32%. In addition, the “binding ELISA (OD 450 nm)” value in assay [2] was 2.55 OD 450 nm. Moreover, in assay [3], the koff amounted to 0.00018 s⁻¹. In assay [5], the binding result is reported as “binds”. In assay [6], the “% inhibition, P3X63 cytotoxicity assay, MOI 3” value was 100% and the “IC50 (nM), P3X63 cytotoxicity assay, MOI 3” value is 435 nM.

B3: Nanobody 14E10 (VHH)
VHH: EVQLVESGGGLVQPGGSLRLSCAASGRIFSINTMGWYRQAPGKQRELVAGVTINAITNYADSVKGRFTISRDNAKNTVWLQMNSLKPEDTAVYYCHAWARSSGSAPYSQNWGQGTQVTVSS
Take B3: the “cytotox assay (% inhibition)” value in assay [1] came to 22%. For the same molecule, in assay [3], the off-rate (koff) worked out at 0.0006 s⁻¹. For the same molecule, in assay [4], the binding result is “no binding”. Further, the binding result in assay [5] is “binds”. In assay [6], the “% inhibition, P3X63 cytotoxicity assay, MOI 3” value came out at 100% and the “IC50 (nM), P3X63 cytotoxicity assay, MOI 3” value is above 3000 nM.

B4: Nanobody 13F07 (VHH)
VHH: EVQLVESGGGLVQAGGSLRLSCAASGNTFSTNPMYWYRQAEGKQRELVASISSRGITNYADSVRGRFSISRDNTKDTVYLQMNSLKPEDTAVYYCRLASLSSGTVYWGKGTLVTVSS
With B4, in assay [1], the “cytotox assay (% inhibition)” value came to 13%. For the same molecule, the off-rate (koff) in assay [3] stood at 0.00092 s⁻¹. In addition, in assay [4], the binding result is listed as “no binding”. The binding result in assay [5] is “binds”. Further, in assay [6], the “% inhibition, P3X63 cytotoxicity assay, MOI 1.5” value is above 20% and the “IC50 (nM), P3X63 cytotoxicity assay, MOI 1.5” value was found to be 35600 nM.

B5: Nanobody 5H01 (VHH)
VHH: EVQLVESGGGLVQPGGSLRLSCAASGSTLDYYAIGWFRQAPGKEREGVSCTSNSGSTYYGGSVKGRFTASRDNAKNTVYLQMNSLRPEDTAVYYCVATIGCATLGGTLDVQRYYYRGQGTQVTVSS
notes: also called 05H01
As for B5, in assay [1], the “cytotox assay (% inhibition)” value was found to be 76%. For the same molecule, the “binding ELISA (OD 450 nm)” value in assay [2] amounted to 2.69 OD 450 nm. Further, the koff in assay [3] was determined as 4.9e-05 s⁻¹. For the same molecule, the binding result in assay [5] is listed as “binds”. In assay [7], this molecule came in with a Kd of 1 nM, a koff of 0.00014 s⁻¹ and a kon of 160000 M⁻¹ s⁻¹. Besides, in assay [6], the “% inhibition, P3X63 cytotoxicity assay, MOI 4” value was 100% and the “IC50 (nM), P3X63 cytotoxicity assay, MOI 4” value is 7 nM.

B6: Nanobody 2B10 (VHH)
VHH: EVQLVESGGGLVQPGGSLRLSCAASGSIFSINNMGWYRQAPGKQRELVTVVTSNLITTYADSVKGRFTISRDNAKNTVYLQMNSLKPEDTAVYYCNAWARSVGSVPYSQFWGQGTLVTVSS
notes: also called 02B10
For B6, the “cytotox assay (% inhibition)” value in assay [1] was determined as 38%. For the same molecule, the “binding ELISA (OD 450 nm)” value in assay [2] came to 2.57 OD 450 nm. Also, the koff in assay [3] turned out to be 0.00018 s⁻¹. Further, the binding result in assay [5] is given as “binds”. In assay [7], this molecule yielded a Kd of 0.5 nM, an off-rate constant (koff) of 0.00025 s⁻¹ and an association rate constant (kon) of 510000 M⁻¹ s⁻¹. In assay [6], the “% inhibition, P3X63 cytotoxicity assay, MOI 4” value turned out to be 100% and the “IC50 (nM), P3X63 cytotoxicity assay, MOI 4” value is 647 nM.
